Patent EP4682166A1 (Guangzhou Enmai Biotechnology Co., Ltd, dated 2026)
One block for each binder: values may come before it.

Tests used:
[1] = biological target: T1, human NMI (N-myc Interacting protein) (human, UniProt Q13287 1-307, limits assumed); assay: indirect ELISA, human NMI coated; supernatant 1/243
T1 construct: Immunogen and ELISA coating antigen; also called hNMI; antigen 1
T1 sequence (looked up): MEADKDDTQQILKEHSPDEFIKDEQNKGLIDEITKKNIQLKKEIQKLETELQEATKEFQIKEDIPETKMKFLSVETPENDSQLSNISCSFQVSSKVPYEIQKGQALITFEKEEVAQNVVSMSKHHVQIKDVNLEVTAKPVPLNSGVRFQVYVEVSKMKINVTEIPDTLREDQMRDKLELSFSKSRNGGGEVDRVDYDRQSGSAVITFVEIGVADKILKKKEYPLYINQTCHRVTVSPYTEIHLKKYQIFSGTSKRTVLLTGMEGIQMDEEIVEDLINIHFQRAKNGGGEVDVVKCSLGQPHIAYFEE

[2] = biological target: T1, human NMI (N-myc Interacting protein); assay: indirect ELISA, human NMI coated; supernatant 1/59049
[3] = biological target: T1, human NMI (N-myc Interacting protein); assay: indirect ELISA, human NMI coated; supernatant dilution series
[4] = biological target: T1, human NMI (N-myc Interacting protein); assay: indirect ELISA, human NMI coated; supernatant 1/81
[5] = biological target: T1, human NMI (N-myc Interacting protein); assay: I-ELISA, hNMI coated 1 ug/mL; antibody 9.765625 ng/mL
[6] = biological target: T1, human NMI (N-myc Interacting protein); assay: indirect ELISA, human NMI coated; supernatant 1/6561
[7] = biological target: T1, human NMI (N-myc Interacting protein); assay: I-ELISA, hNMI coated 1 ug/mL; antibody 156.25 ng/mL
[8] = biological target: T1, human NMI (N-myc Interacting protein); assay: I-ELISA, hNMI coated 1 ug/mL; antibody 2500 ng/mL
[9] = biological target: T1, human NMI (N-myc Interacting protein); assay: indirect ELISA, human NMI coated; supernatant 1/19683
[10] = biological target: T1, human NMI (N-myc Interacting protein); assay: I-ELISA, hNMI coated 1 ug/mL; antibody 1250 ng/mL
[11] = biological target: T1, human NMI (N-myc Interacting protein); assay: I-ELISA, hNMI coated 1 ug/mL; antibody 4.8828125 ng/mL
[12] = biological target: T1, human NMI (N-myc Interacting protein); assay: indirect ELISA, human NMI coated; supernatant undiluted
[13] = biological target: T1, human NMI (N-myc Interacting protein); assay: I-ELISA, hNMI coated 1 ug/mL; antibody 78.125 ng/mL
[14] = biological target: T1, human NMI (N-myc Interacting protein); assay: indirect ELISA, human NMI coated; supernatant 1/3
[15] = biological target: T1, human NMI (N-myc Interacting protein); assay: sandwich ELISA; coating antibody 2.5 ug/mL, detection 94C4-biotin 0.5 ug/mL
[16] = biological target: T1, human NMI (N-myc Interacting protein); assay: I-ELISA, hNMI coated 1 ug/mL; antibody 1.2207031 ng/mL
[17] = biological target: T1, human NMI (N-myc Interacting protein); assay: indirect ELISA, human NMI coated; supernatant 1/9
[18] = biological target: T1, human NMI (N-myc Interacting protein); assay: indirect ELISA, human NMI coated; supernatant 1/729
[19] = biological target: T1, human NMI (N-myc Interacting protein); assay: I-ELISA, hNMI coated 1 ug/mL; antibody 39.0625 ng/mL
[20] = biological target: T1, human NMI (N-myc Interacting protein); assay: indirect ELISA, human NMI coated (repeats Table 1)
[21] = biological target: T1, human NMI (N-myc Interacting protein); assay: I-ELISA, hNMI coated 1 ug/mL; antibody 19.53125 ng/mL
[22] = biological target: T1, human NMI (N-myc Interacting protein); assay: I-ELISA, hNMI coated 1 ug/mL; antibody 2.4414063 ng/mL
[23] = biological target: T1, human NMI (N-myc Interacting protein); assay: indirect ELISA, human NMI coated; supernatant 1/2187
[24] = biological target: T1, human NMI (N-myc Interacting protein); assay: I-ELISA, hNMI coated 1 ug/mL; antibody 625 ng/mL
[25] = biological target: T1, human NMI (N-myc Interacting protein); assay: I-ELISA, hNMI coated 1 ug/mL; antibody 312.5 ng/mL
[26] = biological target: T1, human NMI (N-myc Interacting protein); assay: indirect ELISA, human NMI coated; supernatant 1/27
[27] = biological target: T1, human NMI (N-myc Interacting protein); assay: indirect ELISA, human NMI coated; supernatant dilution series; remark: listed apart in the source
[28] = biological target: T1, human NMI (N-myc Interacting protein); assay: indirect ELISA, human NMI coated (repeats Table 3)
[29] = biological target: T2, human NMI (N-myc Interacting protein), recombinant protein (human, UniProt Q13287 1-307, limits assumed); assay: sandwich ELISA; detection 98G10-1-biotin; hNMI 33.333 ng/mL
T2 construct: Gene ID: 9111; also called hNMI; antigen
T2 sequence (looked up): T1 sequence (looked up)

[30] = biological target: T2, human NMI (N-myc Interacting protein), …; assay: sandwich ELISA; detection 39B4-1-biotin; hNMI 100.000 ng/mL
[31] = biological target: T2, human NMI (N-myc Interacting protein), …; assay: sandwich ELISA; detection 39B4-1-biotin; hNMI 3.704 ng/mL
[32] = biological target: T2, human NMI (N-myc Interacting protein), …; assay: sandwich ELISA; detection 98G10-1-biotin; hNMI 3.704 ng/mL
[33] = biological target: T2, human NMI (N-myc Interacting protein), …; assay: sandwich ELISA; detection 39B4-1-biotin; hNMI 1.235 ng/mL
[34] = biological target: T2, human NMI (N-myc Interacting protein), …; assay: sandwich ELISA; detection 98G10-1-biotin; hNMI 11.111 ng/mL
[35] = biological target: T2, human NMI (N-myc Interacting protein), …; assay: indirect ELISA, coated hNMI
[36] = biological target: T2, human NMI (N-myc Interacting protein), …; assay: sandwich ELISA; detection 98G10-1-biotin; hNMI 1.235 ng/mL
[37] = biological target: T2, human NMI (N-myc Interacting protein), …; assay: sandwich ELISA; detection 39B4-1-biotin; hNMI 11.111 ng/mL
[38] = biological target: T2, human NMI (N-myc Interacting protein), …; assay: sandwich ELISA; detection 98G10-1-biotin; hNMI 100.000 ng/mL
[39] = biological target: T2, human NMI (N-myc Interacting protein), …; assay: sandwich ELISA; detection 39B4-1-biotin; hNMI 33.333 ng/mL

B1: 39B4 (antibody, V domains shown)
VH: QEQLVESGGGLVQPEGSLTLTCTASGFSFSSSYWICWVRQAPGKGLEWIACIYAGTSGSTYYASWAKGRFTISKTSSTTVDLQMNSLTAADTATYFCARAGYYTYGAGVYIYPSSFKLWGPGTLVTVSS
VL: DVVMTQTPASVEAAVGGTVTIKCQASESIGNALAWYQQKPGQPPKLLIYSASNLASGVPSRFSGSGSGTQFTLTISDLECADAATYYCQSYYYSSSSITFGGGTEVVVK
notes: Rabbit monoclonal antibody; also called 39B4-1; 39B4-1-biotin (biotin-labelled form)
- ELISA OD [1]: 3.1 OD
- ELISA OD [2]: 0.415 OD
- EC50 [3]: 0.567 ng/mL
- ELISA OD [4]: 3.28 OD
- OD450 [5]: 0.296 OD450
- ELISA OD [6]: 1.61 OD
- OD450 [7]: 1.8 OD450
- OD450 [8]: 2.25 OD450
- ELISA OD [9]: 0.758 OD
- OD450 [10]: 2.13 OD450
- OD450 [11]: 0.159 OD450
- ELISA OD [12]: 3.4 OD
- OD450 [13]: 1.43 OD450
- ELISA OD [14]: 3.43 OD
- detection limit (sensitivity) [15]: 40 pg/mL
- OD450 [16]: 0.077 OD450
- ELISA OD [17]: 3.41 OD
- ELISA OD [18]: 2.76 OD
- OD450 [19]: 0.828 OD450
- EC50 [20]: 0.567 ng/mL
- OD450 [21]: 0.529 OD450
- OD450 [22]: 0.099 OD450
- ELISA OD [23]: 2.32 OD
- OD450 [24]: 1.99 OD450
- OD450 [25]: 1.99 OD450
- ELISA OD [26]: 3.35 OD

B3: 240B10-1 (antibody, V domains shown)
VH: QSLEESGGRLVTPGGSLTLTCTVSGIDLSSYTMGWVRQAPGKGLEYIGIISGGGRTYYASWAKGRFTISKTSSTTVDLKVTSLTTEDTATYFCARIYTLWGQGTLVTVSS
VL: QVLTQTLASVSAAVGGTVTINCQSSQSVYNNDYLAWFQQKSGQPPKQLIHSASKLASGVPSRFKGSGSGTQFTLTINDVQCDDAATYYCLGGYDCYSADCNVFGGGTEVVVK
notes: Rabbit monoclonal antibody; also called 240B10-1-biotin (biotin-labelled form)
- OD450 [5]: 0.333 OD450
- OD450 [7]: 1.85 OD450
- OD450 [8]: 2.15 OD450
- OD450 [10]: 2.13 OD450
- OD450 [11]: 0.163 OD450
- OD450 [13]: 1.46 OD450
- EC50 [27]: 2.6 ng/mL
- detection limit (sensitivity) [15]: 60 pg/mL
- OD450 [16]: 0.077 OD450
- OD450 [19]: 0.996 OD450
- OD450 [21]: 0.573 OD450
- OD450 [22]: 0.105 OD450
- EC50 [28]: 2.6 ng/mL
- OD450 [24]: 2.2 OD450
- OD450 [25]: 2.19 OD450

Now from value to binder:

- OD450 [5]: 0.243 OD450
- OD450 [7]: 1.36 OD450
- OD450 [8]: 1.85 OD450
- OD450 [10]: 1.68 OD450
- OD450 [11]: 0.143 OD450
- OD450 [13]: 1.26 OD450
- EC50 [27]: 2.51 ng/mL
- detection limit (sensitivity) [15]: 60 pg/mL
- OD450 [16]: 0.084 OD450
- OD450 [19]: 0.838 OD450
- OD450 [21]: 0.502 OD450
- OD450 [22]: 0.099 OD450
- EC50 [28]: 2.51 ng/mL
- OD450 [24]: 1.62 OD450
- OD450 [25]: 1.67 OD450
B2: B-8 (antibody, V domains shown)
VH: QSLEESGGDLVKPGASLTLTCTASGFSFSSSYYMCWVRQAPGKGLEWIACIYAGSSGSTYYASWAKGRFTISKTSSTTVTLQMTSLTAADTATYFCAREYSYDDYGDFWGFNLWGPGTLVTVSS
VL: ALVMTQTPSSVSAAVGGTVTINCQASQNIYTNLAWYQQKPGQPPKLLIYGASNLESGVPSRFKGSGSGTEYTLTISDLECDDAATYYCQSSLYSRIADRANAFGGGTEVVVK
notes: Rabbit monoclonal antibody; also called B8-1; B-8-biotin (biotin-labelled form)

- OD450 [29]: 2.51 OD450
- OD450 [30]: 3.22 OD450
- OD450 [31]: 0.735 OD450
- OD450 [32]: 0.627 OD450
- OD450 [33]: 0.372 OD450
- OD450 [34]: 1.36 OD450
- EC50 [35]: 32.7 ng/mL
- OD450 [36]: 0.292 OD450
- OD450 [37]: 1.67 OD450
- OD450 [38]: 3.1 OD450
- OD450 [39]: 2.75 OD450
B4: monoclonal antibody 94C4 (antibody, V domains shown)
VH: QSLEESGGGLVQPEGSLTLTCKASGFDFSSNAMCWVRQAPGKGLEWIACISSASSGSSGSTYYASWAKGRFTISKTSSTTVTLQMTSLTAADMATYFCARDGYDLWGPGTLVTVSS
VL: QVLTQTPSSVSAAVGGTVTISCQSSPSVYNNYLSWFQQKPGQSPKLLIYRVSTLASGVPSRFSGSGSGTQFTLTISGVQCDDAATYYCAGGYDSASDTYVFGGGTEVVVK
notes: Rabbit monoclonal antibody; Used biotin-labelled as detection antibody (94C4-1-biotin); also called 94C4-1
